Experimental findings from US6833355 (HANSA MEDICAL, dated 2004) are described below.

The chains are these.
B1: protein H of Streptococcus pyogenes, COOH-terminally truncated fragment expressed by and purified from E. coli (305 amino acids) (other)
chain: EGAKIDWQEEYKKLDEDNAKLVEVVETTSLENEKLKSENEENKKNLDKLSKENQGKLEKLELDYLKKLDHEHKEHQKEQQEQEERQKNQEQLERKYQREVEKRYQEQLQKQQQLETEKQISEASRKSLSRDLEASRAAKKDLEAEHQKLEAEHQKLKEDKQISDASRQGLSRDLEASRAAKKELEANHQKLEAEHQKLKEDKQISDASRQGLSRDLEASRAAKKELEANHQKLEAEAKALKEQLAKQAEELAKLRAGKASDSQTPDTKPGNKAVPGKGQAPQAGTKPNQNKAPMKETKRQLPSTG
notes: 42-346 is the same stretch counted from the first Met of the entry; Depending on the assay, protein H was coupled to CNBr-Sepharose, labelled with 125I (Bolton-Hunter), biotinylated or unlabelled; also called recombinant protein H; soluble protein H

For assay [1], the target named is actin from porcine heart (Sigma) (porcine, UniProt B6VNT8 3-377). Nature of the assay: SPR (BIACORE X), protein H over immobilised actin; mean ± SD of three experiments. On the technique in general: Surface plasmon resonance follows binding to a sensor surface in real time, without labels.
Assay [2] addresses B1. In words: Affinity chromatography of the 35S-labelled in vitro translated peptide on protein H-Sepharose, then SDS-PAGE and autoradiography.

For B1, in assay [1], the Ka is 1.7e+06 M⁻¹; the Kd (as a rule, the constant that tells how readily two partners part at equilibrium) amounted to 600 nM; the dissociation rate constant (koff) (as a rule, the first-order rate constant of dissociation) came to 0.0015 s⁻¹; the kon (as a rule, the second-order rate constant of association) came out at 2500 M⁻¹ s⁻¹.

B2: COOH-terminal fragment of NPM, in vitro translated and 35S-methionine-labelled (other)
chain: GSKVPQKKVKLAADEDDDDDDEEDDDEDDDDDDFDDEEAEEKAPVKKSIRDTPAKNAQKSNQNGKDSKPSSTPRSKGQESFKKQEKTPKTPKGPSSVEDIKAKMQASIEKGGSLPKVEAKFINYVKNCFRMTDQEAIQDLWQWRKSL
modifications: 35S-methionine label
notes: domain: COOH-terminal half; also called COOH-terminal peptide; COOH-terminal half of NPM
B2: in assay [2], the binding result is reported as “no binding”.
